The record followed here is the supplement of paper PMC7125110.

Usually kcat stands for the maximal rate divided by the concentration of active sites. A word on the KM: it is the concentration of substrate that gives half-maximal velocity.

B1: glmS ribozyme (parent)
chain: AUAAAAGCGCCAGAACUACAGAAAUGUAGUUGACGAGGAGGAGGUUUAUCGAAUUUUCGGCGGAUGCCUCCAAA

± gives the standard error. For some assays here: This sample holds only a part of the variants without activity.

Holding throughout (conditions): with glucosamine-6-phosphate
Data set [1] covers variants of B1. Description: kcat; higher = faster cleavage; RNA array. In short, it runs like this: (§1)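 Barcoded ribozyme variants on sequenced MiSeq chips were transcribed in situ by E. coli RNA polymerase and followed at 37 °C through a hybridised Cy3 probe. Glucosamine-6-phosphate at 40 μM to 10 mM in HEPES/KCl/Mg(OAc)2 buffer was flowed in, and tiles were imaged over ~14 h. Signals were normalised to baseline and to non-cleaving reference variants, and per-tile medians were fit to one- or two-exponential decays to give kobs. Weighted Michaelis–Menten fits across concentrations gave kcat and KM.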

The variants in data set [2] derive from B1. Description: self-cleavage kobs at 40 uM GlcN6P; higher = faster cleavage; RNA array. Put shortly: as §1
Variants of B1 are the subject of data set [3]. Description: self-cleavage kobs at 2500 uM GlcN6P; higher = faster cleavage; RNA array. In short, it runs like this:
as §1

In data set [4] the parent is B1. Description: self-cleavage kobs at 10000 uM GlcN6P; higher = faster cleavage; RNA array. Put shortly:
as §1

In data set [5] the parent is B1. Description: self-cleavage kobs at 160 uM GlcN6P; higher = faster cleavage; RNA array. Put shortly:
as §1

The variants in data set [6] derive from B1. Description: self-cleavage kobs at 640 uM GlcN6P; higher = faster cleavage; RNA array. Put shortly:
as §1

Data set [7] covers variants of B1. The experiment in a line: KM; higher = weaker cofactor use; RNA array. Put shortly:
as §1

U31G A52U G62U C67G: in the data set with glucosamine-6-phosphate [1], the kcat is less than 1e-05 s⁻¹. In addition, the “self-cleavage kobs at 40 uM GlcN6P” value with glucosamine-6-phosphate [2] is less than 1e-05 s⁻¹. In addition, the “self-cleavage kobs at 2500 uM GlcN6P” value with glucosamine-6-phosphate [3] was less than 1e-05 s⁻¹. For the same variant, in the data set with glucosamine-6-phosphate [4], the “self-cleavage kobs at 10000 uM GlcN6P” value was less than 1e-05 s⁻¹.

For the variant G51U U56C, the catalytic constant (kcat) with glucosamine-6-phosphate [1] was less than 1e-05 s⁻¹. Moreover, the “self-cleavage kobs at 40 uM GlcN6P” value with glucosamine-6-phosphate [2] was less than 1e-05 s⁻¹. The “self-cleavage kobs at 160 uM GlcN6P” value with glucosamine-6-phosphate [5] is less than 1e-05 s⁻¹. The “self-cleavage kobs at 640 uM GlcN6P” value with glucosamine-6-phosphate [6] is less than 1e-05 s⁻¹.

For G40U U47A, the catalytic constant (kcat) with glucosamine-6-phosphate [1] worked out at 0.00153 ± 0.00048 s⁻¹. Also, the KM in the data set with glucosamine-6-phosphate [7] is 1680 ± 730 µM. Also, the “self-cleavage kobs at 40 uM GlcN6P” value with glucosamine-6-phosphate [2] came to 6.16e-05 ± 2.8e-05 s⁻¹. In addition, the “self-cleavage kobs at 160 uM GlcN6P” value with glucosamine-6-phosphate [5] is 0.000114 ± 2.9e-05 s⁻¹. The “self-cleavage kobs at 640 uM GlcN6P” value with glucosamine-6-phosphate [6] was determined as 0.000565 ± 0.0002 s⁻¹. The “self-cleavage kobs at 2500 uM GlcN6P” value with glucosamine-6-phosphate [3] was 0.00134 ± 0.00045 s⁻¹. Besides, the “self-cleavage kobs at 10000 uM GlcN6P” value with glucosamine-6-phosphate [4] worked out at 0.00115 ± 0.00037 s⁻¹.

With A12G G13U, in the data set with glucosamine-6-phosphate [1], the kcat came to 9.52e-05 ± 1e-06 s⁻¹. In addition, the Michaelis-Menten constant (KM) with glucosamine-6-phosphate [7] is 1020 ± 43 µM. In the data set with glucosamine-6-phosphate [6], the “self-cleavage kobs at 640 uM GlcN6P” value is 3.63e-05 ± 8.6e-06 s⁻¹. The “self-cleavage kobs at 2500 uM GlcN6P” value in the data set with glucosamine-6-phosphate [3] stood at 6.89e-05 ± 1.1e-05 s⁻¹. Also, the “self-cleavage kobs at 10000 uM GlcN6P” value with glucosamine-6-phosphate [4] turned out to be 8.62e-05 ± 7.6e-06 s⁻¹.

Turning to A14G G59U, the kcat with glucosamine-6-phosphate [1] is 0.000386 ± 9.6e-05 s⁻¹. For the same variant, the KM in the data set with glucosamine-6-phosphate [7] worked out at 9330 ± 3800 µM. Moreover, the “self-cleavage kobs at 640 uM GlcN6P” value with glucosamine-6-phosphate [6] was found to be 1.71e-05 ± 8e-06 s⁻¹. The “self-cleavage kobs at 2500 uM GlcN6P” value with glucosamine-6-phosphate [3] was 9.37e-05 ± 1.5e-05 s⁻¹. In addition, in the data set with glucosamine-6-phosphate [4], the “self-cleavage kobs at 10000 uM GlcN6P” value turned out to be 0.000196 ± 2.2e-05 s⁻¹.

For the variant C11G U30A, the kcat in the data set with glucosamine-6-phosphate [1] was 4.67e-05 ± 2.4e-06 s⁻¹.

As for A53G A64U, the kcat with glucosamine-6-phosphate [1] is 0.000128 ± 1e-05 s⁻¹. The KM with glucosamine-6-phosphate [7] amounted to 2590 ± 630 µM. The “self-cleavage kobs at 640 uM GlcN6P” value with glucosamine-6-phosphate [6] came to 3.12e-05 ± 9.7e-06 s⁻¹. In addition, in the data set with glucosamine-6-phosphate [3], the “self-cleavage kobs at 2500 uM GlcN6P” value was 5.65e-05 ± 1.1e-05 s⁻¹. In addition, the “self-cleavage kobs at 10000 uM GlcN6P” value in the data set with glucosamine-6-phosphate [4] turned out to be 0.000103 ± 9.5e-06 s⁻¹.

Turning to C16A U46G C70G, the kcat in the data set with glucosamine-6-phosphate [1] amounted to 2.12e-05 ± 3.1e-06 s⁻¹.

As for C16A U56A, the kcat in the data set with glucosamine-6-phosphate [1] amounted to 0.0016 ± 0.00026 s⁻¹. For the same variant, the KM with glucosamine-6-phosphate [7] is 3180 ± 890 µM. The “self-cleavage kobs at 40 uM GlcN6P” value with glucosamine-6-phosphate [2] was 2.51e-05 ± 9.6e-06 s⁻¹. In addition, the “self-cleavage kobs at 160 uM GlcN6P” value with glucosamine-6-phosphate [5] came out at 9.31e-05 ± 3e-05 s⁻¹. Further, in the data set with glucosamine-6-phosphate [6], the “self-cleavage kobs at 640 uM GlcN6P” value is 0.000261 ± 7.2e-05 s⁻¹. For the same variant, the “self-cleavage kobs at 2500 uM GlcN6P” value with glucosamine-6-phosphate [3] turned out to be 0.000618 ± 0.00011 s⁻¹. The “self-cleavage kobs at 10000 uM GlcN6P” value with glucosamine-6-phosphate [4] worked out at 0.00131 ± 0.0002 s⁻¹.

On to G13A A15C, for which, in the data set with glucosamine-6-phosphate [1], the kcat came out at 0.000242 ± 3.2e-05 s⁻¹. Also, the Michaelis-Menten constant (KM) with glucosamine-6-phosphate [7] worked out at 2680 ± 760 µM. The “self-cleavage kobs at 640 uM GlcN6P” value with glucosamine-6-phosphate [6] amounted to 5.24e-05 ± 1.1e-05 s⁻¹. Further, in the data set with glucosamine-6-phosphate [3], the “self-cleavage kobs at 2500 uM GlcN6P” value stood at 9.3e-05 ± 2.5e-05 s⁻¹. In addition, the “self-cleavage kobs at 10000 uM GlcN6P” value in the data set with glucosamine-6-phosphate [4] is 0.000198 ± 2.6e-05 s⁻¹.

As to C10U A12C, in the data set with glucosamine-6-phosphate [1], the kcat was 5.93e-05 ± 3.7e-06 s⁻¹. Also, the KM in the data set with glucosamine-6-phosphate [7] worked out at 3450 ± 580 µM. The “self-cleavage kobs at 2500 uM GlcN6P” value with glucosamine-6-phosphate [3] was determined as 2.54e-05 ± 8e-06 s⁻¹. In addition, the “self-cleavage kobs at 10000 uM GlcN6P” value in the data set with glucosamine-6-phosphate [4] worked out at 4.39e-05 ± 8.1e-06 s⁻¹.

Turning to C58A C68U, the kcat with glucosamine-6-phosphate [1] worked out at 0.000273 ± 5.2e-05 s⁻¹. For the same variant, the KM with glucosamine-6-phosphate [7] worked out at 2100 ± 790 µM. In addition, in the data set with glucosamine-6-phosphate [5], the “self-cleavage kobs at 160 uM GlcN6P” value stood at 3.66e-05 ± 1e-05 s⁻¹. In addition, the “self-cleavage kobs at 640 uM GlcN6P” value with glucosamine-6-phosphate [6] was found to be 6.75e-05 ± 7e-06 s⁻¹. For the same variant, the “self-cleavage kobs at 2500 uM GlcN6P” value in the data set with glucosamine-6-phosphate [3] turned out to be 0.000129 ± 1.2e-05 s⁻¹. Moreover, the “self-cleavage kobs at 10000 uM GlcN6P” value in the data set with glucosamine-6-phosphate [4] is 0.000251 ± 2.3e-05 s⁻¹.

Consider A39U U45G, for which the turnover number (kcat) with glucosamine-6-phosphate [1] came to 0.00909 ± 0.0007 s⁻¹. Also, the KM with glucosamine-6-phosphate [7] worked out at 2650 ± 300 µM. In addition, the “self-cleavage kobs at 40 uM GlcN6P” value with glucosamine-6-phosphate [2] was 0.000146 ± 2e-05 s⁻¹. Moreover, the “self-cleavage kobs at 160 uM GlcN6P” value with glucosamine-6-phosphate [5] amounted to 0.000471 ± 8.8e-05 s⁻¹. For the same variant, the “self-cleavage kobs at 640 uM GlcN6P” value in the data set with glucosamine-6-phosphate [6] is 0.00165 ± 0.00028 s⁻¹. The “self-cleavage kobs at 2500 uM GlcN6P” value in the data set with glucosamine-6-phosphate [3] was determined as 0.00481 ± 0.00079 s⁻¹. Moreover, the “self-cleavage kobs at 10000 uM GlcN6P” value in the data set with glucosamine-6-phosphate [4] came out at 0.00711 ± 0.00075 s⁻¹.

As for A15U G35A, the kcat with glucosamine-6-phosphate [1] is less than 1e-05 s⁻¹. For the same variant, the “self-cleavage kobs at 40 uM GlcN6P” value in the data set with glucosamine-6-phosphate [2] was less than 1e-05 s⁻¹. Moreover, the “self-cleavage kobs at 10000 uM GlcN6P” value in the data set with glucosamine-6-phosphate [4] was less than 1e-05 s⁻¹.

For the variant C58G C71U, in the data set with glucosamine-6-phosphate [1], the kcat stood at 7.95e-05 ± 3.4e-06 s⁻¹. In addition, the KM in the data set with glucosamine-6-phosphate [7] stood at 402 ± 99 µM. For the same variant, the “self-cleavage kobs at 640 uM GlcN6P” value with glucosamine-6-phosphate [6] is 4.63e-05 ± 1.1e-05 s⁻¹. Besides, in the data set with glucosamine-6-phosphate [3], the “self-cleavage kobs at 2500 uM GlcN6P” value turned out to be 7.26e-05 ± 8.7e-06 s⁻¹. Besides, the “self-cleavage kobs at 10000 uM GlcN6P” value with glucosamine-6-phosphate [4] is 7.36e-05 ± 9e-06 s⁻¹.

For G44U U46C, the kcat with glucosamine-6-phosphate [1] amounted to 1.46e-05 ± 1.4e-06 s⁻¹. The KM with glucosamine-6-phosphate [7] was 5110 ± 1200 µM.
